How the values were obtained:
human CD3 = target: T1, human CD3 (human, UniProt P07766 23-207; P04234 22-171; P09693 23-182); assay: FACS, culture supernatant on Jurkat cells; anti-His detection
T1 construct: whole, on cells; also called CD3 antigen; human CD3 complex
Experimental: (§1) 250000 Jurkat cells (for CD3 binding) and Kato cells (for EpCAM binding) were independently incubated with cell culture supernatants (50 μl) containing the bispecific construct (pEF-DHFR-3-1×anti-CD3 (VH5/VL2) (Nr.50, SEQ ID NO.: 48) and pEF-DHFR-5-10×anti-CD3 (VH5/VL2) (Nr.54) (SEQ ID NO.:62), respectively) for 45 min. at 4° C. Thereafter, the cells were washed twice in FACS buffer (phosphate-buffered saline containing 1% fetal calf serum (FCS) and 0.05% sodium azide) and incubated with mouse anti-His antibody (Dianova, DIA910) for 60 min. at 4° C. Washing steps were performed as above.
(§2) The cells were finally incubated either with goat anti-mouse Ig-FITC-conjugated antibody (BD 550003) or with anti-mouse IgG conjugated with PE (Sigma, P8547). After washing steps, 10000 events were analysed using FACS Calibur (B&D).

[1] = target: T2, Epithelial cell adhesion molecule (EpCAM) (human, UniProt P16422 24-314); assay: FACS, culture supernatant on Kato cells (for EpCAM binding); anti-His detection
T2 construct: whole, on cells; also called 17-1A antigen; KSA
T2 sequence (looked up): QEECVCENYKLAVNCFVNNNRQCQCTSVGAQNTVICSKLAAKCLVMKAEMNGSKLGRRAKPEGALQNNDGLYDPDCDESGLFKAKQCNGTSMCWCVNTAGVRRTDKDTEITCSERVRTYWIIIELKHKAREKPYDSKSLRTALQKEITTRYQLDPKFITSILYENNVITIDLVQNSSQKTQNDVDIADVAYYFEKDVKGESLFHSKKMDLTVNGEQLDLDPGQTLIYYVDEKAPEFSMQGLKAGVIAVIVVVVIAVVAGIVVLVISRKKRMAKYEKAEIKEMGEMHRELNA
Experimental: as §1, §2

B1: 5-10×anti-CD3 (VH5/VL2) (SEQ ID NO.:63) (bispecific antibody)
chain: ELVMTQSPSSLTVTAGEKVTMSCKSSQSLLNSGNQKNYLTWYQQKPGQPPKLLIYWASTRESGVPDRFTGSGSGTDFTLTISSVQAEDLAVYYCQNDYSYPLTFGAGTKLEIKGGGGSGGGGSGGGGSEVQLLEQSGAELVRPGTSVKISCKASGYAFTNYWLGWVKQRPGHGLEWIGDIFPGSGNIHYNEKFKGKATLTADKSSSTAYMQLSSLTFEDSAVYFCARLRNWDEPMDYWGQGTTVTVSSGGGGSDVQLVQSGAEVKKPGASVKVSCKASGYTFTRYTMHWVRQAPGQGLEWIGYINPSRGYTNYADSVKGRFTITTDKSTSTAYMELSSLRSEDTATYYCARYYDDHYCLDYWGQGTTVTVSSGEGTSTGSGGSGGSGGADDIVLTQSPATLSLSPGERATLSCRASQSVSYMNWYQQKPGKAPKRWIYDTSKVASGVPARFSGSGSGTDYSLTINSLEAEDAATYYCQQWSSNPLTFGGGTKVEIK
notes: Bispecific single chain with anti-EpCAM at the N-terminus; tested as CHO culture supernatant; detected by anti-His; also called pEF-DHFR-5-10×anti-CD3 (VH5/VL2); Nr.54
Human CD3
  binding result: binds
[1]
  binding result: binds

— patent US20090022738A1 (MICROMET, published 2009)
